Test results as given in patent US20240124575A1 (SIMCERE ZAIMING PHARMACEUTICAL, published 2024).

What was measured:
[1] = target: T1, human CD33-His (extracellular domain Asp 18-His 259) (human, UniProt P20138 18-259); assay: competitive ELISA vs coated S006-NB146-1 2ug/mL; soluble 25ug/ml
T1 construct: range 18-259; bought protein; also called hCD33-his; human CD33 protein; not shown: His tag
Method: (§1) VHH antibodies and control antibodies with known epitopes were subjected to epitope classification with competitive ELISA. ELISA plates were coated with 2 μg/mL antibodies according to the method in Example 5.1; the human CD33-his protein was subjected to a gradient dilution from 30 μg/mL, and EC80 values (Tables 26-27) were calculated. ELISA plates were coated with 2 μg/mL antibodies; after 25 µg/mL of antibodies to be tested were added, a human CD33-his protein having an EC80 concentration corresponding to each of the antibodies to be tested was then added for incubation for 2 h. The plates were washed 5 times with PBS, then HRP-labeled anti-His antibodies (purchased from GenScript, Cat. No. A00612) were added for incubation for 1 h, and the plates were washed 5 times. A TMB substrate was added at 50 μL/well and incubated at room temperature for 10 min, then a stop solution (1.0 M HCl) was added at 50 μL/well. OD_{450 nm} values were read using an ELISA plate reader (Insight, purchased from PerkinElmer), and the competition rate between the antibodies was calculated according to the OD_{450 nm} values using a formula. The results are shown in FIGS. 12A-12B, the higher the value of the competition rate, the closer the epitopes to which two antibodies bind.

[2] = target: T1, human CD33-His (extracellular domain …); assay: competitive ELISA vs coated C33B904 2ug/mL; soluble 25ug/ml
Method: as §1

[3] = target: T2, human CD33 on U937 cells (endogenous) (human, UniProt P20138 18-364); assay: FACS, U937 cells
T2 construct: whole, on cells
Method: The desired cells were expanded to a logarithmic growth phase in a T-75 cell culture flask. For adherent cells CHO-K1, the culture medium was removed by pipetting, and the cells were washed twice with a PBS buffer, digested with trypsin, and washed twice with a PBS buffer again after the digestion was stopped. For suspension cells U937, the medium supernatant was discarded by direct centrifugation, and the cell pellet was washed twice with PBS, and then incubated with a buffer containing human Fc Block (purchased from BD, Cat. No. 564220) for 15 min. After the cells obtained in the last step were subjected to cell counting, the cell pellet was resuspended to 2×10⁶ cells/mL with a blocking solution [PBS+2% (w/w) BSA] and added to a 96-well FACS reaction plate at 50 μL/well. The VHH-Fc antibody (a sample to be tested) was added at 50 μL/well, and the plate was incubated on ice for 2 h. […] After the plate was centrifuged and washed 5 times with a PBS buffer, the results were assayed and analyzed by FACS (FACS Canto™, purchased from BD Biosciences), so as to obtain the mean fluorescence intensity (MFI) of cells. Then, analysis was performed by software (GraphPad Prism8), data were fitted, and EC50 values were calculated.

[4] = target: T1, human CD33-His (extracellular domain …); assay: competitive ELISA vs coated S006-NB146-3 2ug/mL; soluble 25ug/ml
Method: as §1

human CD33-his protein [5] = target: T3, human CD33-his protein (human, UniProt P20138 18-259); assay: competition ELISA, coated human CD33-his, vs Biotin-C33B904 at EC80; antibody 62.50 nM
T3 construct: range 18-259; bought protein; also called hCD33-his; recombinant human CD33-his; not shown: His tag
Method: (§2) ELISA plates were coated with 2 μg/mL human CD33-his protein according to the method in Example 5.1; the Biotin-C331B904 antibody was subjected to a gradient dilution from 15 μg/mL, and EC80 values (0.18 μg/mL) were calculated. ELISA plates were coated with 2 μg/mL human CD33-his protein; starting from 40 μg/mL, the VHH antibodies to be tested were diluted in a 1:2 dilution ratio to obtain seven concentrations and added to the ELISA plates, and then Biotin-C331904 antibodies with the EC80 concentrations were added for incubation for 2 h. The plates were washed 5 times with PBS and then […] (purchased from Sigma, Cat. No. S2438) were added for incubation for 1 h, and the plates were washed 5 times. A TMB substrate was added at 50 μL/well and incubated at room temperature for 10 min, then a stop solution (1.0 M HCl) was added at 50 μL/well. OD_{450 nm} values were read using an ELISA plate reader (Insight, purchased from PerkinElmer). Then, analysis was performed by software (GraphPad Prism8), and data were fitted for curve plotting. The results are shown in FIGS. 13A-13B and Tables 28 and 29.

human CD33-his protein [6] = target: T3, human CD33-his protein; assay: competition ELISA, coated human CD33-his, vs Biotin-C33B904 at EC80; antibody 0.98 nM
Method: as §2

monkey CD33-his protein = target: T4, monkey CD33-his protein (monkey); assay: SPR (Biacore), antibody captured on Protein A chip, monkey CD33 analyte
T4 construct: bought protein; also called monkey CD33 protein (Sino Biological, Cat. No. 50712-M08H)

T1 sequence (P20138 18-259 limits assumed): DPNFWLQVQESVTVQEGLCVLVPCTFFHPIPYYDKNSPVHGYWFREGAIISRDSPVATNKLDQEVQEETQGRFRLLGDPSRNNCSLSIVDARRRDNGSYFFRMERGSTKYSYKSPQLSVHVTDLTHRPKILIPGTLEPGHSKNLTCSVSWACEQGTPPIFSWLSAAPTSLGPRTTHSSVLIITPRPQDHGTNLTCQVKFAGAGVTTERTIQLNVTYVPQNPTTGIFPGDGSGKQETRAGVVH
T2 sequence (P20138 18-364): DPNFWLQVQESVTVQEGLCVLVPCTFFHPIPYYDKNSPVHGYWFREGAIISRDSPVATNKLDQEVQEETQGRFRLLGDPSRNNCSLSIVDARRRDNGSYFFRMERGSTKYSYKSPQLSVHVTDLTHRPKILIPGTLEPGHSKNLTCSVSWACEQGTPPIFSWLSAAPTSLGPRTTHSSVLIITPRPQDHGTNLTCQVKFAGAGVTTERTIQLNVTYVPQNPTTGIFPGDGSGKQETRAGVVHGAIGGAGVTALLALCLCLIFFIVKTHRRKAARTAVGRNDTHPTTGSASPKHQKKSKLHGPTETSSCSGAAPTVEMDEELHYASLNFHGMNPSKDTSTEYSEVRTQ
T3 sequence (P20138 18-259 limits assumed): as the sequence (P20138 18-259 limits assumed) above

inhibition rate [1] [%] | inhibition rate [2] [%] | EC50 [3] [nM] | Max MFI [3] [MFI] | inhibition rate [4] [%] | OD450 (Biotin-C33B904 signal) (human CD33-his protein [5]) | OD450 (Biotin-C33B904 signal) (human CD33-his protein [6]) | Kd (monkey CD33-his protein) [nM] | koff (monkey CD33-his protein) [s⁻¹] | kon (monkey CD33-his protein) [M⁻¹ s⁻¹] | Binder
100 | 88 | 8.41 | 599 | -9 | – | – | – | – | – | C33B904 hIgG1 (antibody, V domains shown, intact human IgG1; variable regions from US20190382481A1; also called C33B3904; C331B904) VH: EVQLVESGGGLVQPGRSLRLSCAASGFTFDDYAMHWVRQAPGKGLEWVSGIGWSGGSIVYADSVKGRFTISRDNAKNSLYLQMNSLRAEDTALYYCAKDSPYGDFFDYWGQGTLVTVSS VL: DIVMTQSPDSLAVSLGERATINCKSSQTVFYSSNNKNYLAWYQQKPGQPPKLLISWASTRKSGVPDRFSGSGSGTDFTLTVSSLQAEDVAVYYCQHYYSTPYTFGQGTKLEIKR
– | – | – | – | – | 0.32 | 2.22 | 0.565 | 0.000626 | 1.11e+06 | C33B904 (antibody, human IgG1, kappa, V domains shown, control antibody, intact human IgG1 form; variable regions from US20190382481A1; also called C33B904 hIgG1; C331B904) VH: EVQLVESGGGLVQPGRSLRLSCAASGFTFDDYAMHWVRQAPGKGLEWVSGIGWSGGSIVYADSVKGRFTISRDNAKNSLYLQMNSLRAEDTALYYCAKDSPYGDFFDYWGQGTLVTVSS VL: DIVMTQSPDSLAVSLGERATINCKSSQTVFYSSNNKNYLAWYQQKPGQPPKLLISWASTRKSGVPDRFSGSGSGTDFTLTVSSLQAEDVAVYYCQHYYSTPYTFGQGTKLEIKR
